# From patent US7374923B2, “Polypeptide” (Astellas Pharma Inc., priority 2002, dated 2008)
# Columns and labels:
# MD8S protein = assay: Inhibition of digestion of recombinant IGFBP-5 by MD8S protein (western blotting); assay type: biochemical, human
# Description: The MD8S enzyme solution obtained in Example 8(1) was reacted with recombinant IGFBP-5 obtained in Example 9(1) in a 50 mmol/L tris-HCl (pH7.4) buffer containing 50 mmol/L NaCl, 2 mmol/L CaCl2, 20 μg/mL bovine serum albumin (BSA), and 0.1% CHAPS at 37° C. overnight. In this connection, concentrations of the MD8S protein and recombinant IGFBP-5 in the reaction solution were 1.5 μg/mL and 10 μg/mL, respectively.
# Using an aliquot of the reaction solution, SDS-PAGE was carried out, and then a transfer to a PVDF membrane and blocking was carried out. Recombinant IGFBP-5 was detected by reacting a biotinylated M2 antibody (Sigma) as the first antibody, followed by a horseradish peroxidase-labeled streptavidin (Amersham) as the second antibody, and by using an ECL Western Blotting Detecting System (Amersham Pharmacia).
# Substances inhibiting the activity of digesting IGFBP-5 by the MD8S protein can be screened by the reaction system utilizing western blotting performed in Example 9(2). In this Example, the procedure described in Example 9(2) was repeated, except that various compounds having a hydroxamic acid scaffold as a compound to be tested were added to the reaction system containing the MD8S enzyme solution and recombinant IGFBP-5, to measure an inhibitory intensity of the activity of digesting IGFBP-5. […]
# IGFBP-3 = assay: Activity of digesting IGFBP-3 by MD8S protein; assay type: biochemical; details: commercial IGFBP-3 10 μg/mL, MD8S 1.5 μg/mL, 37° C. overnight; new band of 25 kDa
# Description: (§1) The MD8S enzyme solution obtained in Example 8(1) was reacted with commercially available IGFBP-3 or IGFBP-5 (upstate biotechnology) in a 50 mmol/L tris-HCl(pH7.4) buffer containing 50 mmol/L NaCl, 2 mmol/L CaCl2, 20 μg/mL bovine serum albumin (BSA), and 0.1% CHAPS at 37° C. overnight. In this connection, concentrations of the MD8S protein and IGFBP-3 (or IGFBP-5) in the reaction solution were 1.5 μg/mL and 10 μg/mL, respectively.
# (§2) Using an aliquot of the reaction solution, sodium dodecyl sulfate polyacrylamide gel electrophoresis (SDS-PAGE) was carried out, and then a transfer to a PVDF membrane and blocking was carried out. IGFBP-3 was detected using an anti-IGFBP-3 polyclonal antibody (R&D System) as the first antibody and a peroxidase-labeled rabbit anti-goat IgG polyclonal antibody (ZYMED) as the second antibody. IGFBP-5 was detected using an anti-IGFBP-5 polyclonal antibody (upstate biotechnology) as the first antibody and a peroxidase-labeled goat anti-rabbit IgG polyclonal antibody (MBL) as the second antibody.
# IGFBP-5 = assay: Activity of digesting IGFBP-5 by MD8S protein; assay type: biochemical, human; details: MD8S 1.5 μg/mL, 37° C. overnight
# Description: as §1, §2
# The MD8S enzyme solution obtained in Example 8(1) was reacted with recombinant IGFBP-5 obtained in Example 9(1) in a 50 mmol/L tris-HCl (pH7.4) buffer containing 50 mmol/L NaCl, 2 mmol/L CaCl2, 20 μg/mL bovine serum albumin (BSA), and 0.1% CHAPS at 37° C. overnight. […]
"IC50 (MD8S protein; MD8S 1.5 μg/mL, recombinant IGFBP-5 10 μg/mL, 37° C. overnight, western blot image analysis, read-out: intensity of the inhibition activity (IC50) of the activity of digesting IGFBP-5)",Molecule,"activity of digesting recombinant IGFBP by the MD8S protein in presence of compound (FIG. 3) (MD8S protein; electrophoresis, compound A 1 nmol/L to 10 μmol/L)",activity of digesting IGFBP-3 (IGFBP-3),"activity of digesting IGFBP-5 (IGFBP-5; commercial IGFBP-5 10 μg/mL, new bands 12 to 25 kDa)",activity of digesting recombinant IGFBP-5 (IGFBP-5; recombinant IGFBP-5-FLAG 10 μg/mL)
3.3 µM,"CCCOCC(C(=O)NC(Cc1ccc(OC)cc1)C(=O)NC)C(CSC)C(=O)O (stereo not drawn) [compound A, N^α-[(3-carboxy-4-methylthio-2-propoxymethyl)butyryl]-N,O-dimethylthyrosineamide]",inhibited,,,
,"MD8S protein: extracellular region of human MD8 protein, 1st to 646th amino acids of SEQ ID NO: 2, with C-terminal FLAG tag (protein, listed as Homo sapiens, C-terminal FLAG tag) MRGLGLWLLGAMMLPAIAPSRPWALMEQYEVVLPRRLPGPRVRRALPSHLGLHPERVSYVLGATGHNFTLHLRKNRDLLGSGYTETYTAANGSEVTEQPRGQDHCFYQGHVEGYPDSAASLSTCAGLRGFFQVGSDLHLIEPLDEGGEGGRHAVYQAEHLLQTAGTCGVSDDSLGSLLGPRTAAVFRPRPGDSLPSRETRYVELYVVVDNAEFQMLGSEAAVRHRVLEVVNHVDKLYQKLNFRVVLVGLEIWNSQDRFHVSPDPSVTLENLLTWQARQRTRRHLHDNVQLITGVDFTGTTVGFARVSAMCSHSSGAVNQDHSKNPVGVACTMAHEMGHNLGMDHDENVQGCRCQERFEAGRCIMAGSIGSSFPRMFSDCSQAYLESFLERPQSVCLANAPDLSHLVGGPVCGNLFVERGEQCDCGPPEDCRNRCCNSTTCQLAEGAQCAHGTCCQECKVKPAGELCRPKKDMCDLEEFCDGRHPECPEDAFQENGTPCSGGYCYNGACPTLAQQCQAFWGPGGQAAEESCFSYDILPGCKASRYRADMCGVLQCKGGQQPLGRAICIVDVCHALTTEDGTAYEPVPEGTRCGPEKVCWKGRCQDLHVYRSSNCSAQCHNHGVCNHKQECHCHAGWAPPHCAKLLTE",,exhibits an activity of digesting IGFBP-3,exhibits an activity of digesting IGFBP-3 and IGFBP-5,exhibits an activity of digesting IGFBP-5
